Data published in patent US20120213809A1.

Key:
[1] = molecular target: CCR7 on T2 hybridoma cells; experiment: cell-based or functional assay
[2] = molecular target: CP-MVP recombinant vaults (rat MVP generated in Sf9 cells) (rat) (UniProt Q62667); experiment: densitometry of Coomassie stained SDS-PAGE gels of purified vault complexes
Chain of UniProt Q62667 (Q62667 2-861 limits assumed): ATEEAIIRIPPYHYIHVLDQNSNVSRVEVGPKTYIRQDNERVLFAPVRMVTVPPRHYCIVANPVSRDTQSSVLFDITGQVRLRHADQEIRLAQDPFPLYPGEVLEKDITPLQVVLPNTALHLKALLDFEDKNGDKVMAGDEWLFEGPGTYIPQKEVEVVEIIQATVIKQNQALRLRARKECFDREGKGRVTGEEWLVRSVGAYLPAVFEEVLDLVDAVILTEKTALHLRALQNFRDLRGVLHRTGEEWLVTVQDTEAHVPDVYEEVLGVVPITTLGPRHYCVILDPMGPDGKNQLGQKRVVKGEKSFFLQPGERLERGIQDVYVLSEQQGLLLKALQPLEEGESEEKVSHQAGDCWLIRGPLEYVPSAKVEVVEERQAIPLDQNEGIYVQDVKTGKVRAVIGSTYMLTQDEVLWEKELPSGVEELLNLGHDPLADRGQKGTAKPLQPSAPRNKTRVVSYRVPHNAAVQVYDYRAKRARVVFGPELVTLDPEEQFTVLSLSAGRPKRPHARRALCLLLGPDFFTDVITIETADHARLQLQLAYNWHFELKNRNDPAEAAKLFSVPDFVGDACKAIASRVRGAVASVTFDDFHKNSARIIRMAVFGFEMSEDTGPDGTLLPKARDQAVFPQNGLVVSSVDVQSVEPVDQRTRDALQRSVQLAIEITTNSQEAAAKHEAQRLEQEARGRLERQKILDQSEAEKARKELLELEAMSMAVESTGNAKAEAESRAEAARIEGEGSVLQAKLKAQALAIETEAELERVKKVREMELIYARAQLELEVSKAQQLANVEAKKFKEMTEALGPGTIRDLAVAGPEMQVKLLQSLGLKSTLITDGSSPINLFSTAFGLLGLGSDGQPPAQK

Chain of CCL-21 vault complex (CP-MVP vaults with packaged mouse CCL-21-mCherry-mINT) (chain): as the sequence (Q62667 2-861 limits assumed) above
Chain of CCL-21 vault complex (CP-MVP vaults with packaged mouse CCL-21-mCherry-mINT) (chain, part): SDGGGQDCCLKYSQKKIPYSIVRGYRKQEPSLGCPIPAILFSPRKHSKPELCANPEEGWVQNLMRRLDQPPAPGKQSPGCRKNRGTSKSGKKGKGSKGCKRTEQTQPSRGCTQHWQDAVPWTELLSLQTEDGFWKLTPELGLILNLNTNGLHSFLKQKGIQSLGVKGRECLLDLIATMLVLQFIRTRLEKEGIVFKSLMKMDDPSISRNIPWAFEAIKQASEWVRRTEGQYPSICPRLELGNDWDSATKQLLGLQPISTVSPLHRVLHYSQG

| Substance | % migration of T2 cells (dual-chamber chemotaxis assay) [1] | molecules of CCL-21-mINT protein per vault complex (molecules per vault complex) [2] |
| --- | --- | --- |
| CCL-21 vault complex (CP-MVP vaults with packaged mouse CCL-21-mCherry-mINT) | > 7.5% |  |
| mouse CCL-21-mCherry-mINT fusion protein |  | 20 to 30 |
| recombinant CCL-21 (R&D Systems) (ligand) | < 2.5% |  |
